Test results from IntAct's records for PubMed 23222643.

B1: Formin-like protein 3 (Mus musculus), Q6ZPF4-1 (parent)
chain: MGNLESTDGGPGEPPSVPLLLPPGKTPMPEPCELEERFALVLSSMNLPPDKARLLRQYDNEKKWDLICDQERFQVKNPPHTYIQKLQSFLDPNVTRKKFRRRVQESTKVLRELEISLRTNHIGWVREFLNDENKGLDVLVDYLSFAQCSVMFDFEGLESGDDGAFDKLRSWSRSIEDLQPPNALSAPFTNSLARSARQSVLRYSTLPGRRALKNSRLVSQKDDVHVCILCLRAIMNYQYGFNLVMSHPHAVNEIALSLNNKNPRTKALVLELLAAVCLVRGGHEIILAAFDNFKEVCKELHRFEKLMEYFRNEDSNIDFMVACMQFINIVVHSVEDMNFRVHLQYEFTKLGLEEFLQKSRHTESEKLQVQIQAYLDNVFDVGGLLEDAETKNVALEKVEELEEHVSHLTEKLLDLENENMMRVAELEKQLLQREKELESIKETYENTSNQVHTLRRLIKEKEEAFQRRCHLEPSARGLESMGGEALARVGPTELTEGIPPSDLDLLAPAPPTEETLPLPPPPAPPLPPPPPPLPDKCPPAPPLPGAAPSVVLTVGLSAIRIKKPIKTKFRLPVFNWTALKPNQINGTVFSELDDEKILEDLDLDRFEELFKTKAQGPALDLICSKNKTAQKAASKVTLLEANRAKNLAITLRKAGRSAEEICRAIHTFDLQTLPVDFVECLMRFLPTEAEVKLLRQYERERQPLEELAAEDRFMLLFSKVERLTQRMAGMAFLGNFQDNLQMLTPQLNAIIAASASVKSSQKLKQMLEIILALGNYMNSSKRGAVYGFKLQSLDLLLDTKSTDRKMTLLHFIALTVKEKYPELANFWQELHFVEKAAAVSLENVLLDVKELGRGMELIRRECSIHDNSVLRNFLSTNEGKLDKLQRDAKTAEEAYNAVVRYFGESPKTTPPSVFFPVFVRFIRSYKEAEQENEARKKQEEVMREKQLAQEAKKLDAKTPSQRNKWQQQELIAELRRRQAKEHRPVYEGKDGTIEDIITVLKSVPFTARTAKRGSRFFCDAAHHDESNC

Variants of: B1
Conditions: with acts_rabit ACTA1, P68135

Row | Variant | effect of a mutation on the interaction
1 | I649A | decreasing interaction strength
